In patent US20230270824A1, “INTERFERON-BASED CANCER TREATMENT METHOD AND PHARMACEUTICAL COMPOSITION” (XIAMEN AMOYTOP BIOTECH CO., LTD., priority 2019, published 2023):
Where “and” joins values, the source holds several entries; their conditions need not be identical. Identical values can stand only once.

Tests used:
[1] = tested on: transplanted breast cancer 4T1; experiment: Interferon combined with gemcitabine, transplanted breast cancer 4T1 in mice (Example 9); assay type: in vivo, BALB/c mice; conditions: 53 days after tumor inoculation
Experimental: (§1) In this example, a comparative study on the efficacy of PEG-mIFN-α4 intermittent administration (once every 48 hours for 3 consecutive times, then drug withdrawal for 144 hours; for 5 rounds), PEG-mIFN-α4 continuous administration (once every 48 hours for 25 consecutive times), PEG-mIFN-α4 in combination with gemcitabine (PEG-mIFN-α4: once every 48 hours for 3 consecutive times, then drug withdrawal for 240 hours, 4 rounds; gemcitabine: once a week) on transplanted breast cancer 4T1 in mice was performed.
(§2) On the day when the tumor was inoculated, they were randomly divided into PEG-mIFN-α4 continuous administration group (N=24, female 12, male 12), PEG-mIFN-α4 intermittent administration group (N=24, female 12, male 12), the normal saline control group (N=24, female 12, male 12), the gemcitabine only group (N=24, female 12, male 12), and PEG-mIFN-α4 combined with gemcitabine group (N=24, female 12, male 12).
(§3) For the PEG-mIFN-α4 intermittent administration group, PEG-mIFN-α4 was administered once every 48 hours for 3 consecutive times, then drug withdrawal for 144 hours; for 5 rounds. For the PEG-mIFN-α4 continuous administration group, PEG-mIFN-α4 was administered once every 48 hours. For the PEG-mIFN-α4 combined with gemcitabine group, PEG-mIFN-α4 was administered once every 48 hours for 3 consecutive times, then drug withdrawal for 240 hours; for 4 rounds; and gemcitabine was administered once a week. For the gemcitabine only group, gemcitabine was administered once a week. For the saline control group, equal volume of saline was administered. Gemcitabine was injected intraperitoneally, 60 mg/kg.
(§4) SAS9.4 software was used for comparing the difference in mortality, and the statistical tests were all two-sided tests.

[2] = tested on: transplanted melanoma B16; experiment: Interferon combined with gemcitabine, transplanted melanoma B16 in mice (Example 8); assay type: in vivo, C57BL/6N mice
Experimental: as §1, with “240” for “144”, “4” for “5”, “24” for “25”, “melanoma B16” for “breast cancer 4T1”
as §2, with “(N=28,” for “(N=24,”, “14,” for “12,”, “14),” for “12),”, “14).” for “12).”
as §3, with “240” for “144”, “4” for “5”
as §4

[3] = tested on: transplanted colorectal cancer CT26; experiment: Interferon combined with gemcitabine, transplanted colorectal cancer CT26 in mice (Example 7); assay type: in vivo, BALB/c mice; conditions: 110 days observation
Experimental: as §1, with “for three” for “for 3”, “for 11” for “for 5”, “for 55” for “for 25”, “hours, 8” for “hours, 4”, “transplanted colorectal” for “transplanted breast”, “cancer CT26” for “cancer 4T1”
The anticancer agent is Gemcitabine (Jiangsu HAOSEN Pharmaceutical).
as §2
Gemcitabine was injected intraperitoneally, 60 mg/kg. […] For the PEG-mIFN-α4 intermittent administration group, PEG-mIFN-α4 was administered once every 48 hours for three consecutive times, then drug withdrawal for 144 hours; for 11 rounds. For the PEG-mIFN-α4 continuous administration group, PEG-mIFN-α4 was administered once every 48 hours. For the PEG-mIFN-α4 combined with gemcitabine group, PEG-mIFN-α4 was administered once every 48 hours for three consecutive times, then drug withdrawal for 240 hours; for 8 rounds; and gemcitabine was administered once a week. For the gemcitabine only group, gemcitabine was administered once a week. For the saline control group, equal volume of saline was administered.
Survival analysis was performed for all groups to compare the differences between groups.

[4] = tested on: transplanted lung cancer LLC; experiment: Interferon combined with gemcitabine, transplanted lung cancer LLC in mice (Example 6); assay type: in vivo, C57BL/6N mice
Experimental: as §1, with “four” for “3”, “192” for “144”, “32” for “25”, “360” for “240”, “[…]” for “breast”, “LLC” for “4T1”
as §2, with “(N=26,” for “(N=24,”, “13,” for “12,”, “13),” for “12),”, “13).” for “12).”
as §3, with “4” for “3”, “192” for “144”, “[…]” for “5”, “360” for “240”
as §4

B1: PEG-mIFN-α4: deglycosylated recombinant mouse interferon α4 modified with 40 kD Y-type polyethylene glycol (YPEG-NHS); SEQ ID NO: 6 (protein)
chain: CDLPHTYNLGNKRALTVLEEMRRLPPLSCLKDRKDFGFPLEKVDNQQIQKAQAILVLRDLTQQILNLFTSKDLSATWNATLLDSFCNDLHQQLNDLKACVMQEPPLTQEDSLLAVRTYFHRITVYLRKKKHSLCAWEVIRAEVWRALSSSTNLLARLSEEKE
modifications: 40 kD Y-type PEG; deglycosylated; amino acid sequence of peginterferon murine 4
B1 was tested, and the Mortality ([1]; continuous administration (once every 48 hours, 25 times)) was 87.5% and 58.3%, the Mortality ([1]; intermittent administration (every 48 h x3, withdrawal 144 h, 5 rounds)) was 87.5% and the Mortality ([2]; continuous administration (once every 48 hours), 46 days after tumor inoculation) was 100%. For the same molecule, the Mortality ([2]; continuous administration (once every 48 hours, 24 times), Table 7, day not printed for this cell (footnotes: Day 46 / Day 48)) was 100%, the Mortality ([2]; intermittent administration (every 48 h x3, withdrawal 240 h, 4 rounds), 46 days after tumor inoculation) was 39.3% and the Mortality ([2]; intermittent administration (every 48 h x3, withdrawal 240 h, 4 rounds), 48 days after tumor inoculation) was 46.4%. The “Mean survival period (days post tumor inoculation)” value ([3]; continuous administration: once every 48 hours, 55 times) was 53.5 days, the “Mean survival period (days post tumor inoculation)” value ([3]; intermittent administration: 1 μg/mouse every 48 h x3, withdrawal 144 h, 11 rounds) was 89.0 days and the Mortality ([4]; continuous administration (1 μg/mouse s.c. once every 48 hours), 45 days after tumor inoculation) was 100%. For the same molecule, the Mortality ([4]; continuous administration (once every 48 hours), Day 64 post tumor inoculation) was 100%, the Mortality ([4]; intermittent administration (every 48 h x4, withdrawal 192 h), 45 days after tumor inoculation) was 34.6% and the Mortality ([4]; intermittent administration (every 48 h x4, withdrawal 192 h), Day 64 post tumor inoculation) was 84.6%.
